# Experiment: yeast display, Sf9 membrane polyspecificity reagent, FACS + sequencing; frameworks hold sequencing errors
# Procedure, shortened: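 Genes from sorted yeast were amplified by colony PCR, read by MiSeq 2 × 250 sequencing and filtered on CDR length. These cells carried a synthetic nanobody library in Saccharomyces cerevisiae BJ5465 and were sorted by FACS into low and high (top ~1%) gates on anti-HA and streptavidin fluorescence. Polyreactivity is labelled according to the gate of origin.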
row,Sequence,polyreactivity (PSR sort gate)
1,QVQLVESGGGLVQAGGSLRLSCAASGSTFYVYAMGWYRPAPGKERELVATISSSGAITYYADSVKGRFTISGDNAKNTVYLQMNSLKPEDTAVYYCARTGSLLSQVWYNYWGQGTQVTVSS,low polyreactivity
2,QVQLVESGGGLVQAGGSLRLSCAASGSTFYVYAMGWYRQAPGKERELVAAISKRGGTTYYADSVKGRFTISRDNAKNTVYLQMNSLKPEDTAVYYCATVSSSRDHDYWGQGTQVTVSS,high polyreactivity
3,QVQLVESGGGLVQAGGSLRLSCAASGSTFYVYAMGWYRQAPGKERELVAAITVRGGSTYYADSVKGRFTISRDNAKKTVYLQMNSLKPEDTAVYYCNAEGTYGYWRSYNYWGQGTQVTVSS,high polyreactivity
4,QVQLVESGGGLVQAGGSLRLSCAASGSTFYVYAMGWYRQAPGKERELVAGITDSGGSTYADSVKGRFTISRDNAKNTVYLQMNSLKPEVTAVYYCAADGETLTPRILGESEGDYWGQGTQVTVSS,low polyreactivity
5,QVQLVESGGGLVQAGGSLRLSCAASGSTFYVYVMGWYRQAPGKERELVAVIDWRGGSTYYADSVKGRFTISRDNAKNTVYLQMNSLKPEDTAVYYCNKDAQFYYKLPYYKERDWGQGTQVTVSS,low polyreactivity
6,QVQLVESGGGLVQAGGSLRLSCAASGSTFYWYAMGWYRQAPGKERELVAAITSTGGSTYADSVKGRFTISRDNAKNTVYFQMNSLKPEDTAVYYWNVDTSSPSRRDYDYWGQGTQVTVSS,low polyreactivity
7,QVQLVESGGGLVQAGGSLRLSCAASGSTFYWYAMGWYRQAPGKERQLVAAITRNAGSTYYADTVKGRFTISRDNAKNTVYVQMNSLKPEDTAVSYCAADGARSAFLLAYYYWGQGTQVTGSS,low polyreactivity
8,QVQLVESGGGLVQAGGSLRLSCAASGSTFYYHGRGWSRQAPGKERELVAVISISGGSTYYADSVKGSFTISRDNAKNTVDLQMNSLKPEDTAVYYCATSYVGRSAYRSYGARGGYWGQGTQVTVSS,low polyreactivity
9,QVQLVESGGGLVQAGGSLRLSCAASGSTFYYNAMGCYRQAPGKERELVAAISSDGSTNYADSVKGRFTISRDNAKNTVYLQMNSLKPEDTAVYYCAAENIVYVRSNWYWGYDYWGQGTQVTVSS,low polyreactivity
10,QVQLVESGGGLVQAGGSLRLSCAASGSTFYYNAMGWYRQAPGKEREFVASISWRGGRTYYADSVKGRFTISRDNAKNTVYLQMNSLKPEDTAVYYCAKGYLALGQPDDYWGQGTQVTVSS,high polyreactivity
11,QVQLVESGGGLVQAGGSLRLSCAASGSTFYYNAMGWYRQAPGKERELVAAISKRGGTTSYADSVKGRFTISRDNAKNTVFLQMNSLKPEDTAVYYCAAQTYLRQFYRYDWGQGTQVTVSS,high polyreactivity
12,QVQLVESGGGLVQAGGSLRLSCAASGSTFYYNAMGWYRQAPGKERELVARISRSGGSTYADSVKGRFTISRDNAKNTVYLQMNSLIPEDTAVYYCNADAYGTPEFTSYAVRYDYWGQGTQVTVSS,low polyreactivity
13,QVQLVESGGGLVQAGGSLRLSCAASGSTFYYNAMGWYRQAPGKERELVASISRSGGSTYADSVKGRFTISRDNAKNTVYLQMNSLKPVDTAVYYCNADAYGTPEFTSYAVRYDYWGQGTQVTVSS,low polyreactivity
14,QVQLVESGGGLVQAGGSLRLSCAASGSTFYYNSMGWYRQAPGKERELVARISRSGGSTYADSVKGRFTISRDNAKNTVYLQMNSLKPEDTAVYYCAKDYAPSATKLHYWGQGTQVTVSS,low polyreactivity
15,QVQLVESGGGLVQAGGSLRLSCAASGSTFYYNVMGWYRQAPGKERELVAAISNAGTTNYADSVKGRFTISRDNAKNTVYLQMNSLKPEDTAVYYCNAEFIGPEGYWWYIEYYYWGQGTQVTVSS,low polyreactivity
16,QVQLVESGGGLVQAGGSLRLSCAASGSTFYYYAMGGYRQAPGKERELVAAISISDNSTYYADSVKGRFTSSRDNAKNTVYLQMNSLKPEDTAVYYCAAYGWYAHDDSTYDYWGQGTQVTVSS,low polyreactivity
17,QVQLVESGGGLVQAGGSLRLSCAASGSTFYYYAMGWSRPAPGKERELVAAISTRGGSTYYADSVKGRFTISRDNAKNTVYLQMNSLKPEDTAVYYCAKKYGYFGLHGYWGQGTQVTVSS,high polyreactivity
18,QVQLVESGGGLVQAGGSLRLSCAASGSTFYYYAMGWSRQAPGKERELVAAITRGGSTYYADSVKGRFTISRDNAKNTVYLQMNSLRPEDTAVYYCAAKSAYHGLVGGYYYWGQGTQVTVSS,high polyreactivity
19,QVQLVESGGGLVQAGGSLRLSCAASGSTFYYYAMGWYRQAPGKEREFVAAITWSGGSTYYADSVKGRFTISRDNAKNTVYLQMNSLKQEDTGVYYCAKDQRYYYYGGGDYWGQGTQLTVSS,low polyreactivity
20,QVQLVESGGGLVQAGGSLRLSCAASGSTFYYYAMGWYRQAPGKERELVAAISKSGGSTYYADSVKGRFTISRDNAKNTVYLQMNSLKPEDTAVYYCAARGRYISDYWGQGTQVTVSS,high polyreactivity
21,QVQLVESGGGLVQAGGSLRLSCAASGSTFYYYAMGWYRQAPGKERELVAAITYSGGGTYYADSVKGRFTISRDNAKNTVYLQMNSLKPEDTAVYYCAKTIAVNTWYYYWGQGTQVTVSS,low polyreactivity

row,Sequence,polyreactivity (PSR sort gate)
1,QVQLVESGGGLVQAGGSLRLSCAASGSTFYYYAMGWYRQAPGKERELVASISFSGGSTYYADSVKGRFTISRDNAKNTVYLQMNSLKPEDTAVYYCGYYYWGQGTQVTVSS,low polyreactivity
2,QVQLVESGGGLVQAGGSLRLSCAASGSTFYYYAMGWYRQAPGKERELVASISSAGNTNYADSVKGRFTISRDNAKNTVYLQMNSLKPEDTAVYYCAARYSGHPRYYYYWGQGTQVTVSS,low polyreactivity
3,QVQLVESGGGLVQAGGSLRLSCAASGSTFYYYAMGWYRQAPGKERELVATISSGSSTNYADSVKGRFTISRDNAKNTVYLQMNSLIPEDTAVYYCAADRWYINLYIDATISYDYWGQGTQVTVSS,low polyreactivity
4,QVQLVESGGGLVQAGGSLRLSCAASGSTFYYYARGWYRQAPGKERELVAAISTSDGSTYYADSVKGRFTISRDNAKNTVYLQMNSLKPEDTAVYYCAADSYERFASYYYWGQGTQVTVSS,low polyreactivity
5,QVQLVESGGGLVQAGGSLRLSCAASGSTFYYYTMGWYRQAPGKERELVAISWDGDSTYSADSVKGRFTISRDNAKNTVYLQMNSLKPEDTAVYYCAAADYYLPDDVSDYVDANFDYWGQGTQVTVSS,low polyreactivity
6,QVQLVESGGGLVQAGGSLRLSCAASGSTGVNTMGWYRQAPGKERELVAAIRATGGSTYYADSVKGRFTISRDNAKNTVYLQMNSLKPEDTAVYYCAARYYRSQYWYDDSWGQGTQVTVSS,high polyreactivity
7,QVQLVESGGGLVQAGGSLRLSCAASGSTIAYYTMGWYRQAPGKERELVAAISASGGSTYYADSVKGRFTISRDNAKNTFYIQMNSLKPEDTAVYYCNAESYLTGWWVDYWGQGTQVTVSS,low polyreactivity
8,QVQLVESGGGLVQAGGSLRLSCAASGSTIDGNAMGWYRQAPGKERELVAAITSGGSTNYADSVKGRFTISRDNAKNTVYLQMNSLKPEDTAVYYCAADTVSFSILYDYWGQGTQVTVSS,low polyreactivity
9,QVQLVESGGGLVQAGGSLRLSCAASGSTIDKYAMGWYRQAPGKERELVAAIRKSGGRTYYADSVKGRFTISRDNAKHTVYLQMYSLKQEDTAVYYCAAVLPNYYSVRYGYWGQGTQVSVSS,high polyreactivity
10,QVQLVESGGGLVQAGGSLRLSCAASGSTIDYYAMGWYRQARGKERELVAAISWSGGSTYYADSVKGRFTISRDNAKNTVYLQMNSLKPEDTAVYYCAADSAFYTGSYYGWSDYDYWGQGTQVTVSS,low polyreactivity
11,QVQLVESGGGLVQAGGSLRLSCAASGSTIERYAMGWYRHAPGKERELVAAIRWSGGSTYYADSVKGRFTISRDNAKNTVYLQMNSLKPEDTAVYYCAASRSNADWFDSWGQGTQVTVSS,high polyreactivity
12,QVQLVESGGGLVQAGGSLRLSCAASGSTIKYYAMGWYRPAPGKERELVAAISKGATRTYYADSVKGRFTISRDHAKNTVYLQMNSLKPEDTAVYFCAADRLKFPCEYDYWGHGTQVTVSS,high polyreactivity
13,QVQLVESGGGLVQAGGSLRLSCAASGSTINQYAMGWYRQAPGKERELVAAITRRGGSTYYADSVKGRFTISRDNAKNTVYLQMNSLKPEDTAVYYCAAAYPYTTVSYDYWGQGTQVTVSS,high polyreactivity
14,QVQLVESGGGLVQAGGSLRLSCAASGSTINYNAMGWYRQAPGKERELVAAIDSGVSTNYADSVKGRFTISRDNAKNTVYFQMNSLKPEDTAVYYCNADPDYFDYWGQGTQVTVSS,low polyreactivity
15,QVQLVESGGGLVQAGGSLRLSCAASGSTIPLYAMGWYRQAPGKERELVAAISRRGGRTYYADSVKGRFTISRDNAKNSVYLQMNSLKPEDTGVYYCAARYTRRHYDYWGQGTKVTVSS,high polyreactivity
16,QVQLVESGGGLVQAGGSLRLSCAASGSTIPSYAMGWYRQATGKERELVASITYSDGTTRYADSVKGRFTISRDYAKNTVYFQMYSLKPEDTAVYYCNAVYYREGMDYWGQGTQVSVSS,low polyreactivity
17,QVQLVESGGGLVQAGGSLRLSCAASGSTIPYYAMGWYRQAPGKERELVATISSSGGSTYYADSVKGRFTISRDNAKNTVYLQMKSLKPEDTAVYYCAARYQTSGFRYRYGYWGQGTQVTVSS,high polyreactivity
18,QVQLVESGGGLVQAGGSLRLSCAASGSTIQSNMGWYRQAPGKERELVAAITTNGSSTYYADSVKGRFTISRDNAKNTVYLQMNCLKPEDTAVYDCAAGPRYRYYYGWYDYWGQGTQVNVSS,high polyreactivity
19,QVQLVESGGGLVQAGGSLRLSCAASGSTIRGYAMGWYRQAPGKEREFVAAITVNGGNTYYADSVKGRFTISRDNAKNTVYLQMNSLKPEDTAVYYCNVPVTVGKDSITEHYYWGLGTQVTVSS,low polyreactivity
20,QVQLVESGGGLVQAGGSLRLSCAASGSTIRGYARGWYRQAPGKEREFVAAITVNGGNTYYAESVKGRFTLSRDNAKNTVYLQMNSLKPEDTEGYYCNVPVTVVKASITEHYYWGQGTQVTVSS,low polyreactivity
